# According to patent US6653282B1, “Peptide Compositions which induce immune tolerance and methods of use” (priority 1996, dated 2003):
# Bridge positions count the residues as written; N and C are the ends. Square brackets hold non-standard residues; d marks the D form. Ends that are not written are not given here. Pen = CC(C)(S)[C@H](N)C(=O)O
# B1: cLAB-L (peptide)
# peptide: XITDGEATDSGC
# modifications: not fully specified; cyclic: disulfide bridge between the amino-terminal penicillamine (Xaa in the Sequence Listing) or cysteine and the carboxy-terminal cysteine
# Assays:
# [1] = target: leukocyte function-associated antigen (LFA-1) (human, UniProt P20701 26-1170; P05107 23-769); assay: cell-based or functional assay
# [2] = target: intercellular adhesion molecule (ICAM-1) (human, UniProt P05362 28-532); assay: cell-based or functional assay
# Sequence of intercellular adhesion molecule (ICAM-1) (P05362 28-532): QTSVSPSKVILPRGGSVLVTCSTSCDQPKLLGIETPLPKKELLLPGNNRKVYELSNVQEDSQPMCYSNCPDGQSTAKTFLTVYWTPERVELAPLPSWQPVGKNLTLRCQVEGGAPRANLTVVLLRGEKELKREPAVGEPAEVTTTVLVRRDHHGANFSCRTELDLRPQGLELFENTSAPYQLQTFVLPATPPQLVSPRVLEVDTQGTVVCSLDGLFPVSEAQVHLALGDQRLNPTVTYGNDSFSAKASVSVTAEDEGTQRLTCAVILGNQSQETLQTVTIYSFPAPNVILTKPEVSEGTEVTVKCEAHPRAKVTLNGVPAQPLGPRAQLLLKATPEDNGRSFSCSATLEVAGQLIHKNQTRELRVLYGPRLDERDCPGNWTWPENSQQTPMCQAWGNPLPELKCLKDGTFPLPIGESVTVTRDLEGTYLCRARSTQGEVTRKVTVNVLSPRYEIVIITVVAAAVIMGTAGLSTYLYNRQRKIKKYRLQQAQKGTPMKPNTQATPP
# Sequence of leukocyte function-associated antigen (LFA-1) (P20701 26-1170, chain 1 of 2): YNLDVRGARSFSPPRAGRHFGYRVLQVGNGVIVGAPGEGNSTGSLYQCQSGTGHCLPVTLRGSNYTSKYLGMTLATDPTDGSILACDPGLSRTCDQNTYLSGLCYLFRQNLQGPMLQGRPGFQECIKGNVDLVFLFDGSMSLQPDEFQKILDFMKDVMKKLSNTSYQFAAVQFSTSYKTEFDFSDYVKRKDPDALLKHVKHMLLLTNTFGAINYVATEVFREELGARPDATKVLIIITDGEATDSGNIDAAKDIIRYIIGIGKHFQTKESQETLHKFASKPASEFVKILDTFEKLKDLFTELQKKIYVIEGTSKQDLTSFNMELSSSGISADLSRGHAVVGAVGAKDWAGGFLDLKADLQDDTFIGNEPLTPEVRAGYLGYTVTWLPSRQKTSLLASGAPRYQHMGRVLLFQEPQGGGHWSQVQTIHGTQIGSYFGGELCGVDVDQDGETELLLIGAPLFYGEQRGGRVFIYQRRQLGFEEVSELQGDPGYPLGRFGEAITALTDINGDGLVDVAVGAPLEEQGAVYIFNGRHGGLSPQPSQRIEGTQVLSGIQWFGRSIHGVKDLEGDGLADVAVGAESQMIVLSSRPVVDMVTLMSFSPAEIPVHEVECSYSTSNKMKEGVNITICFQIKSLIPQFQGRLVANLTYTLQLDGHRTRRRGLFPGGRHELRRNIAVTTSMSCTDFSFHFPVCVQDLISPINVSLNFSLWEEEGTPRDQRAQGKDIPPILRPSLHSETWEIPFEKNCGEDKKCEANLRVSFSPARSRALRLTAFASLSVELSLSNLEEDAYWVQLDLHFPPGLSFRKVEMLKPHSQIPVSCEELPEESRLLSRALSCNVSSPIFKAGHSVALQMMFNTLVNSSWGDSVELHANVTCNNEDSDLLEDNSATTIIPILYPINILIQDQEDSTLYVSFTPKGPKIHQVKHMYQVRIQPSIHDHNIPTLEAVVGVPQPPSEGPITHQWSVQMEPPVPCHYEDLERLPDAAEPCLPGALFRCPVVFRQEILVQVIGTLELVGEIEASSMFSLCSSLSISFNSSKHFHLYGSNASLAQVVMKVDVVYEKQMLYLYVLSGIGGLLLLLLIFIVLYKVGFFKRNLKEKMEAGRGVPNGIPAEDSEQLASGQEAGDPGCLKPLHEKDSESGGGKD
# Sequence of leukocyte function-associated antigen (LFA-1) (P05107 23-769, chain 2 of 2): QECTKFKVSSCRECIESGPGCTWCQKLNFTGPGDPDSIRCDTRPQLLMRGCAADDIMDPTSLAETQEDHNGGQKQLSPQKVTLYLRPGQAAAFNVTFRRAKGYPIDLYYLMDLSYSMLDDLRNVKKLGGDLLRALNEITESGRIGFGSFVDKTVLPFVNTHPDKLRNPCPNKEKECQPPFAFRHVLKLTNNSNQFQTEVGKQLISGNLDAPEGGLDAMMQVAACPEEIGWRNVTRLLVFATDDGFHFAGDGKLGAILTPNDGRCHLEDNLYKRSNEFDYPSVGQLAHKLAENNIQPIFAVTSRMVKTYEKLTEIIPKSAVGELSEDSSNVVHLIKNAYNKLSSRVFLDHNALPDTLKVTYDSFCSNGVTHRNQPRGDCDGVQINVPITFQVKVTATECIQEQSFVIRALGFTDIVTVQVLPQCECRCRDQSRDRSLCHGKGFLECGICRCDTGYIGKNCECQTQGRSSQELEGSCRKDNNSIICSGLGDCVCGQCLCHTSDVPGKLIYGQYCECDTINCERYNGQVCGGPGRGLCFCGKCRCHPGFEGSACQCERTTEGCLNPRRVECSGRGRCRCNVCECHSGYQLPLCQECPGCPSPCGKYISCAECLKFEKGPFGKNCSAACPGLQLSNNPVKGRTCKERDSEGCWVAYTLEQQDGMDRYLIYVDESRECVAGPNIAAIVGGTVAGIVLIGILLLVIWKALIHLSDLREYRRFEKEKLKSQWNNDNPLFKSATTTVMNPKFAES
Binder,Clumping Index [1],Clumping Index [2]
CLPRGGSVLVTC (disulfide 1-12; not fully specified) [cIB-R],73 clumping index (0-100),
[Pen]ETPLPKKELLC (disulfide 1-12; not fully specified) [cIE-C],23 clumping index (0-100),
DLSYSLDDLRNVKKLGGDLLRALNE [LBE],,73 clumping index (0-100)
[Pen]DLSYSLDDLRC (disulfide 1-12; not fully specified) [cLBE-L],,75 clumping index (0-100)
[Pen]GVDVDQDGETC (disulfide 1-12; not fully specified) [cLAB.2-L],,50 clumping index (0-100)
QTSVSPSKVILPRGGSVLVTG [IB],56 clumping index (0-100),
DQPKLLGIETPLPKKELLLPGNNRK [IE],63 clumping index (0-100),
[Pen]QTSVSPSKVIC (disulfide 1-12; not fully specified) [cIB-L],61 clumping index (0-100),
GVDVDQDGETELIGAPLFYGEQRG [LAB.2],,48 clumping index (0-100)
ITDGEATDSGNIDAAKDIIYIIGI [LAB],,75 clumping index (0-100)
[Pen]DLRNVKKLGGC (disulfide 1-12; not fully specified) [cLBE-C],,82 clumping index (0-100)
ENLARLLDGGLKKVNRLDDLSYSLD [EBL],,100 clumping index (0-100)
B1,,78 clumping index (0-100)
[Pen]AKDIIYIIGIC (disulfide 1-12; not fully specified) [cLAB-R],,77 clumping index (0-100)
[Pen]GGLLRALNEC (disulfide 1-11; not fully specified) [cLBE-R],,100 clumping index (0-100)
[Pen]PSKVILPRGGC (disulfide 1-12; not fully specified) [cIB-C],61 clumping index (0-100),
[Pen]DSGNIDAAKDC (disulfide 1-12; not fully specified) [cLAB-C],,80 clumping index (0-100)
